PMC9913320, “Development of ^99mTc-Hynic-Adh-1 Molecular Probe Specifically Targeting N-Cadherin and Its Preliminary Experimental Study in Monitoring Drug Resistance of Non-Small-Cell Lung Cancer” (Cancers, 2023)

What was measured:
[1] = In vitro stability in FBS; assay type: in vitro ADME; conditions: room temperature
Protocol: In vitro stability studies of ^99mTc-HYNIC-ADH1 were performed in FBS as well as PBS solution. A total of 50 μL of ^99mTc-HYNIC-ADH1 was mixed with 950 μL of FBS (or PBS), and its radioactivity was measured after being incubated at room temperature for 0.5, 1, 2, 4, 6 and 24 h, respectively.
For stability assessments, ^99mTc-HYNIC-ADH-1 (3.7 MBq) was incubated in PBS (pH 7.4) or FBS for 24 h. […] The radiochemical purities were 98.51%, 98.50%, 97.97%, 98.02%, 98.81%, 98.09% and 98.09% in FBS at room temperature at 0.5, 1, 2, 3, 6, 12 and 24 h, respectively.

[2] = Biodistribution in normal mice; assay type: in vivo, C57/BL6 mice; conditions: for tissue uptake at 0.5 h / tissue uptake at 1 h / tissue uptake at 2 h / tissue uptake at 4 h: i.v.; for tissue uptake at 0.5 h: 30 min; for tissue uptake at 1 h: 60 min; for tissue uptake at 2 h: 120 min; for tissue uptake at 4 h: 240 min
Protocol: (§1) The radiotracer (0.1 mL, 0.74 MBq) was injected intravenously into normal C57/BL6 mice and xenograft models as previously described (n = 4 per group per time) via the tail vein. After different time intervals (30, 60, 120 and 240 min), the mice were sacrificed by cervical dislocation, and their blood, tumors and major organs (brain, heart, lung, liver, spleen, kidney, stomach, intestine, muscle, bone and skin) were harvested and weighed. The radioactivity of each sample was measured with a γ-counter. Values are shown as the percentage of the injected dose per gram (%ID/g), which corrected for background and decay to maintain consistency.

[3] = Partition coefficient (Log D), 1-octanol/PBS; assay type: physicochemical; conditions: 1-octanol and PBS (pH 7.4), n = 3
Protocol: Partition coefficients (Log D) of ^99mTc-HYNIC-ADH-1 were measured through the assessment of the distribution of radioactivity in 1-octanol and phosphate buffer in a 2 mL centrifuge tube. A 10 µL ^99mTc-HYNIC-ADH-1 solution was added to a vial containing 1 mL each of 1-octanol and PBS (pH 7.4). After vortexing for 10 min, the vial was centrifuged for 10 min to ensure complete separation of the layers. Then, 10 µL of each layer was pipetted into separate test tubes, and the counts were measured using a γ counter. Partition coefficients are shown as the log counts in 1-octanol vs. PBS layers (n = 3).

PC9 tumor = assay: Biodistribution in xenograft-bearing nude mice, PC9 tumor; assay type: in vivo, BALB/c nude mice; conditions: biodistribution, tumor-bearing mice
Protocol: (§2) All animal research was performed in accordance with the Zhejiang University Institutional Animal Care and Use Committee guidelines. PC9 and PC9GR cells (2 × 10^6 cells per mice) were injected subcutaneously into the flanks of 2- to 4-week old BALB/c nude mice (left: PC9GR, right: PC9). The cells were allowed to grow 3–5 weeks until tumors were 1 ± 0.5 cm^3 in volume. Normal C57/BL6 mice (aged 6 to 8 wks old) were obtained from the Animal Center of the First Affiliated Hospital of Zhejiang University. All animals were maintained with free access to food and water and used a standard diet, bedding and environment.
as §1

[4] = as above; assay type: in vivo, BALB/c nude mice; conditions: mouse, tumor (PC9), iv, 0.74 MBq, xenograft-bearing nude mice, i.v., read-out: Biodistribution, T(PC9)
Protocol: as §2, §1

[5] = mouse, blood, iv, 0.74 MBq, normal C57/BL6 mice, read-out: Biodistribution, Blood
[6] = mouse, bone, iv, 0.74 MBq, normal C57/BL6 mice, read-out: Biodistribution, Bone
[7] = mouse, brain, iv, 0.74 MBq, normal C57/BL6 mice, read-out: Biodistribution, Brain
[8] = mouse, heart, iv, 0.74 MBq, normal C57/BL6 mice, read-out: Biodistribution, Heart
[9] = mouse, intestine, iv, 0.74 MBq, normal C57/BL6 mice, read-out: Biodistribution, Intestine
[10] = mouse, kidney, iv, 0.74 MBq, normal C57/BL6 mice, read-out: Biodistribution, Kidney
[11] = mouse, liver, iv, 0.74 MBq, normal C57/BL6 mice, read-out: Biodistribution, Liver
[12] = mouse, lung, iv, 0.74 MBq, normal C57/BL6 mice, read-out: Biodistribution, Lung
[13] = mouse, muscle, iv, 0.74 MBq, normal C57/BL6 mice, read-out: Biodistribution, Muscle
[14] = mouse, skin, iv, 0.74 MBq, normal C57/BL6 mice, read-out: Biodistribution, Skin
[15] = mouse, spleen, iv, 0.74 MBq, normal C57/BL6 mice, read-out: Biodistribution, Spleen
[16] = mouse, stomach, iv, 0.74 MBq, normal C57/BL6 mice, read-out: Biodistribution, Stomach

Compound: CC(=O)N[C@H]1CSSC[C@@H](C(=O)NCCNC(=O)c2ccc(NN)nc2)NC(=O)[C@H](C(C)C)NC(=O)[C@H](C)NC(=O)[C@H](Cc2c[nH]cn2)NC1=O [^99mTc-HYNIC-ADH-1, metal not drawn]
- radiochemical purity ([1]; 0.5 h): 98.51%
- radiochemical purity ([1]; 1 h): 98.50%
- radiochemical purity ([1]; 2 h): 97.97%
- radiochemical purity ([1]; 3 h): 98.02%
- radiochemical purity ([1]; 6 h): 98.81%
- radiochemical purity ([1]; 12 h): 98.09%
- crossing of the blood–brain barrier ([2]; from biodistribution: no obvious distribution in the brain): could not cross the blood–brain barrier
- tissue uptake at 0.5 h [2, 5]: 3.31 ± 0.37 %ID/g
- tissue uptake at 1 h [2, 5]: 1.23 ± 0.07 %ID/g
- tissue uptake at 2 h [2, 5]: 0.84 ± 0.19 %ID/g
- tissue uptake at 4 h [2, 5]: 0.58 ± 0.08 %ID/g
- tissue uptake at 0.5 h [2, 6]: 1.45 ± 0.11 %ID/g
- tissue uptake at 1 h [2, 6]: 0.61 ± 0.14 %ID/g
- tissue uptake at 2 h [2, 6]: 0.58 ± 0.3 %ID/g
- tissue uptake at 4 h [2, 6]: 0.44 ± 0.15 %ID/g
- tissue uptake at 0.5 h [2, 7]: 0.18 ± 0.05 %ID/g
- tissue uptake at 1 h [2, 7]: 0.09 ± 0.02 %ID/g
- tissue uptake at 2 h [2, 7]: 0.1 ± 0.02 %ID/g
- tissue uptake at 4 h [2, 7]: 0.08 ± 0.05 %ID/g
- tissue uptake at 0.5 h [2, 8]: 1.71 ± 0.3 %ID/g
- tissue uptake at 1 h [2, 8]: 0.49 ± 0.29 %ID/g
- tissue uptake at 2 h [2, 8]: 0.43 ± 0.07 %ID/g
- tissue uptake at 4 h [2, 8]: 0.32 ± 0.04 %ID/g
- tissue uptake at 0.5 h [2, 9]: 2.96 ± 0.3 %ID/g
- tissue uptake at 1 h [2, 9]: 2.14 ± 0.43 %ID/g
- tissue uptake at 2 h [2, 9]: 1.78 ± 0.2 %ID/g
- tissue uptake at 4 h [2, 9]: 1.26 ± 0.33 %ID/g
- tissue uptake at 5 min ([2]; mouse, kidney, iv, 0.74 MBq, normal C57/BL6 mice, 5 min): 22.1 ± 1.15 %ID/g
- tissue uptake at 0.25 h ([2]; mouse, kidney, iv, 0.74 MBq, normal C57/BL6 mice, 15 min): 12 ± 0.73 %ID/g
- tissue uptake at 0.5 h [2, 10]: 12.1 ± 0.47 %ID/g
- tissue uptake at 1 h [2, 10]: 9.01 ± 0.76 %ID/g
- tissue uptake at 2 h [2, 10]: 6.46 ± 0.3 %ID/g
- tissue uptake at 4 h [2, 10]: 6.16 ± 0.51 %ID/g
- tissue uptake at 0.5 h [2, 11]: 1.95 ± 0.17 %ID/g
- tissue uptake at 1 h [2, 11]: 1.06 ± 0.2 %ID/g
- tissue uptake at 2 h [2, 11]: 0.86 ± 0.15 %ID/g
- tissue uptake at 4 h [2, 11]: 0.68 ± 0.12 %ID/g
- tissue uptake at 0.5 h [2, 12]: 3.83 ± 0.12 %ID/g
- tissue uptake at 1 h [2, 12]: 1.7 ± 0.14 %ID/g
- tissue uptake at 2 h [2, 12]: 1.54 ± 0.56 %ID/g
- tissue uptake at 4 h [2, 12]: 1.08 ± 0.27 %ID/g
- tissue uptake at 0.5 h [2, 13]: 1.55 ± 0.8 %ID/g
- tissue uptake at 1 h [2, 13]: 0.44 ± 0.08 %ID/g
- tissue uptake at 2 h [2, 13]: 0.52 ± 0.29 %ID/g
- tissue uptake at 4 h [2, 13]: 0.42 ± 0.21 %ID/g
- tissue uptake at 0.5 h [2, 14]: 3.45 ± 0.44 %ID/g
- tissue uptake at 1 h [2, 14]: 1.9 ± 0.58 %ID/g
- tissue uptake at 2 h [2, 14]: 1.69 ± 0.4 %ID/g
- tissue uptake at 4 h [2, 14]: 1.05 ± 0.18 %ID/g
- tissue uptake at 0.5 h [2, 15]: 1.25 ± 0.1 %ID/g
- tissue uptake at 1 h [2, 15]: 0.73 ± 0.24 %ID/g
- tissue uptake at 2 h [2, 15]: 0.53 ± 0.12 %ID/g
- tissue uptake at 4 h [2, 15]: 0.45 ± 0.11 %ID/g
- tissue uptake at 0.5 h [2, 16]: 2.24 ± 0.42 %ID/g
- tissue uptake at 1 h [2, 16]: 0.94 ± 0.23 %ID/g
- tissue uptake at 2 h [2, 16]: 0.66 ± 0.09 %ID/g
- tissue uptake at 4 h [2, 16]: 1.28 ± 0.43 %ID/g
- logD [3]: -2.45 ± 0.1
- T/NT PC9/Kidney (PC9 tumor; 30 min): 0.27 ± 0.06
- T/NT PC9/Liver (PC9 tumor; 30 min): 1.36 ± 0.15
- T/NT PC9/Muscle (PC9 tumor; 30 min): 1.97 ± 0.21
- T/NT PC9/Kidney (PC9 tumor; 1 h): 0.27 ± 0.03
- T/NT PC9/Liver (PC9 tumor; 1 h): 1.58 ± 0.06
- T/NT PC9/Muscle (PC9 tumor; 1 h): 2.59 ± 0.34
- T/NT PC9/Kidney (PC9 tumor; 2 h): 0.26 ± 0.06
- T/NT PC9/Liver (PC9 tumor; 2 h): 1.41 ± 0.21
- T/NT PC9/Muscle (PC9 tumor; 2 h): 3.36 ± 0.08
- T/NT PC9/Kidney (PC9 tumor; 4 h): 0.25 ± 0.02
- T/NT PC9/Liver (PC9 tumor; 4 h): 1.01 ± 0.31
- T/NT PC9/Muscle (PC9 tumor; 4 h): 2.78 ± 0.28
- tissue uptake at 0.5 h ([4]; 30 min): 0.99 ± 0.15 %ID/g
- tissue uptake at 1 h ([4]; 60 min): 0.91 ± 0.03 %ID/g
- tissue uptake at 2 h ([4]; 120 min): 0.79 ± 0.06 %ID/g
- tissue uptake at 4 h ([4]; 240 min): 0.64 ± 0.16 %ID/g
